From paper PMC13006735
Where two headings read alike, the source gives them in different places.

Legend:
[1] = molecular target: Ebola virus (EBOV, Zaire) glycoprotein GP, wild type (Ebola virus (EBOV, Zaire)) (UniProt Q05320)
[2] = molecular target: Sudan virus (SUDV) glycoprotein GP (Sudan virus (SUDV)) (UniProt Q7T9D9)
[3] = molecular target: Sudan virus (SUDV) glycoprotein GP (Sudan virus (SUDV)) (UniProt Q7T9D9); remark: listed apart in the source

Substance | IC50, neutralisation of EBOV GP pseudovirus (luciferase, Huh7 cells) [1] | IC90, neutralisation of EBOV GP pseudovirus (luciferase, Huh7 cells) [1] | IC50, neutralisation of SUDV GP pseudovirus (luciferase, Huh7 cells) [2] | IC90, neutralisation of SUDV GP pseudovirus (luciferase, Huh7 cells) [2] | IC90, neutralisation of SUDV GP pseudovirus (luciferase, Huh7 cells) [3]
A50Y/S52Y/L54R-LC (ADI-15946 light chain triple mutant) (antibody) | 0.15 µg/mL | 1.1 µg/mL | – | – | –
ADI-15878 (antibody) | – | – | 0.04 µg/mL | 0.9 µg/mL | 0.3 µg/mL
H27Q/S52Y/G66R-LC (ADI-15946 light chain triple mutant) (antibody) | 0.15 µg/mL | 0.86 µg/mL | – | – | –
